Measured values reported in PMC12422969.

Molecular target: GluA3-G (GluA3(Gly439)), flip splice form, R/G-edited, as the GluA3 part of the GluA3-G–TARP-γ2 tandem construct (rat)
Assay: cryo-EM structure; apo state; GluA3–TARP-γ2 tandem construct purified as a complex from Expi293 cells (digitonin lysis; 50 mM Tris pH 8, 150 mM NaCl, 0.1% GDN), 2–3 mg/ml, vitrified at 4 °C

stoichiometry N: 4
Substance: GluA3-G (GluA3(Gly439)), flip splice form, R/G-edited, as the GluA3 part of the GluA3-G–TARP-γ2 tandem construct (receptor)
